Experimental data taken from US20230192845A1.
Where a chain is given by its changes, count along the chain named.

T1: hCD96-humanIgG1 fusion protein (human) (UniProt P40200)
T1 sequence: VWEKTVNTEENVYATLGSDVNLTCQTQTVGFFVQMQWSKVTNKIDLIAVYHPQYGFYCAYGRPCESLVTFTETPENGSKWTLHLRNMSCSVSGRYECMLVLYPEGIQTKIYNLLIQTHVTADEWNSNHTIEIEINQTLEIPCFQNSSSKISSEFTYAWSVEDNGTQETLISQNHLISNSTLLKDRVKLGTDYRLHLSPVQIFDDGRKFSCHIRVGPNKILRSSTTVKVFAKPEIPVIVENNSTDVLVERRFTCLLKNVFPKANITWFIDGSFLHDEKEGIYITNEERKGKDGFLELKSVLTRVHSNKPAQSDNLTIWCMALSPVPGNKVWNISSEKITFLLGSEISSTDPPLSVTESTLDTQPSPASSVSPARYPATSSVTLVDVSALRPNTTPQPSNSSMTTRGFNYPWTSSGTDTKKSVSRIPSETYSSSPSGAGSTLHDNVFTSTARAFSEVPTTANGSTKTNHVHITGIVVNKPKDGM

B1: BL006-9-15G1-15K5 (antibody, V domains shown)
VH: QAYLQQSGAELVRPGASVKMSCKASGYTFTSYNMHWVKQTPRQGLEWIGAVIPGNGDSFYNQKFKGKATLTVDKSSSTAYMQLSSLTSEDSAVYFCGRSSSGCIAYWGQGTLVTVSA
VL: DIVLTQSPASLAVSLGQRATISCRVSGSVDYDGDSYMNWYQQKPGQPPKLLIYAASNLESGIPARFSGSGSETDFTLNIHPVEEEDAATYYCLQSNEAPWTFGGGTKVEIK
B2: BL006-9-1G1-1K1 (antibody, V domains shown)
VH: EVKLVESGGGLVKPGGSLKLSCAASGFTFSSYAMSWVRQTPERGLEWVAAIQSNGGSTFYPDTVKDRFTISRDNAKNTLYLQMSSLRSEDTALYYCVRGPFDYWGQGTTLTVSS
VL: QIVLTQSPAIMSASPGQKVTIPCSASSSVNYIHWFQQKLGSSPKLWIYDTSKLTPGVPARFSGSGSGTSYSLTISSMEAEDAASYFCHQWRSYPPTFGGGTKLEIK
B3: BL006-4-52G6-52K7 (antibody, V domains shown)
VH: QVQLQQPGAELVKPGASVKLSCKASGYSFTSYWMHWVKQRPGQGLEWIGQIDPSDSYTNYNQKFKGKATLTVDKSSSTAYMQLSSLTSEDSAVYYCASGNYGPYLGNYFDYWGQGTTLTVPS
VL: DIVMSQSPSSLVVSVGEKVTMSCKSSQSLLHSTNQKNYLAWYQQKPGQSPKLLIYWASTRESGVPDRFTGSGSGTDFTLTISSVKAEDLVVYYCQQYYNYPYTFGGGTKLEIK
B4: BL006-19-183G3-183K4 (antibody, V domains shown)
VH: QVTLNESGPGILQPSQTLSLTCSFSGFSLTTYGMGVGWIRQPSGKSLEWLANIWWTEDKYYNSALKSRLTISTDTSHNQVFLKISSVDTEDTATYYCAQMGPEVYSAMDYWGQGTSVTVSS
VL: DIVMTPSQKFMSTTVGDRVSITCKASQNVGTAVAWYQQKPGHSPKLLIYSASNRNTGVPDRFTGSGSGTDFTLTISNMQSEDLADYFCHQYSRYPWTFGGGTKLEIK
B5: BL006-4-61G5-61K1 (antibody, V domains shown)
VH: EVKLEESGGGLVQPGGSMKLSCVASGFTFSNYWMNWVRQSPEKGLEWVAQIRFKSDNYATHYAESVKGRFTISRDDSKSSVYLQMHNLRAEDTGIYYCTEFAYWGQGTLVTVSA
VL: QILLTQSPAIMSASPGEKVTMTCSASSRVNSRFLNWYQQKSGVSPKLWIYGTSNLASGVPARFSGSGSGTSYSLTISSVEAEDVATYYCQQYQSDPPITFGAGTRLELI
B6: BL006-4-20G5-20K5 (antibody, V domains shown)
VH: EVQLAESGGDLVTPGGSLKLSCAASGFTFSSYGMSWVRQTPDKRLEWVATITHGGSYIYYPDSVKGRFTLSRDNAKNTLYLQMSSLKSEDTAMYYCIRHADYARFAYWGQGTLVTVSA
VL: DIQMTQTTSSLSASLGDRVTISCRPSQDISNYLNWYQQKPDGTVKLLIYYTSRLHSGVPSRFSGSGSGTDYSLTISNLEQEDIATYFCQQGNTLPWTFGGGTKLEIK
B7: BL006-19-352G9-352K8 (antibody, V domains shown)
VH: QVQLQQPGAELVKPGASVKLSCKASGYTFTSYWMHWVKQRPGQGLEWIGMIHPNGDITDYNEKFKSKATLAVDESSSTAFMQLNSLTSEDSAFYYCARASYYGSLYWGQGTTLTVSS
VL: DIVMTQSQKFMSTSVGDRVSVTCKASQNVGIAVAWYQKKPGQSPKTLIYSASTRYTGVPDRFTGSGSGTDFTLTINDVQSEDLADYFCQQYGSSPLTFGAGTKLELK
B8: BL006-19-21G1-21K1 (antibody, V domains shown)
VH: QVQLQQPGAELVKPGASVKMSCKASGYTFISYWITWVKQRPGQGLEWIGDIYPGSGHTNYNEKFKSKATLTVDTSSSTAYMQLSSLTSEDSAVYYCARPTVEAMDYWGQGTSVTVSS
VL: QIVLTQSPAIMSASPGEKVTMTCSASSSVNYMHWYQQRSGTSPKRWIYDTSKLASGVPARFSGSGSGTSYSLTISSMEAEDAATYYCQQWSNNPLTFGAGTKLELK
B9: BL006-19-370G9-370K16 (antibody, V domains shown)
VH: QVQLQQSGAELGRPGTSVKMSCKAAGYTFTNYWIGWVKQRPGHGLEWIGDIYPGGGYTNYNEKFKGKATLTADTSSSTAYIQLSSLTSEDSAIYYCARSGYYDGSPLAMDYWGQGTSVTVS
VL: B8 VL with A9T, N30S, R38K, N92S, L95P, A99S, L105I
B10: BL006-11-5G1-5K3 (antibody, V domains shown)
VH: EVQLVESGGGLVKPGGSLKLSCAASGFTFSSYAMSWVRQTPEKRLEWVAAINTDGASTYFPATVKDRFTISRDNAKNTLYLQMSSLRSEDTALYYCARPLEPGSWFAYWGQGTLVTVSA
VL: DVLMTQTPLSLPVSLGDQASISCRSSQSIVHSNGNTYLEWYLQKPGQSPKVLIYKVSNRFSGVPDRISGSGSGTDFTLKISRVEAGDLGVYYCFQGSHVPYTFGGGTKLEIK
B11: BL006-8-3G9-3K4 (antibody, V domains shown)
VH: QVQLQQSGAELVRPGASVKLSCKASGYRFTDYEMEWVKQTPVHGLEWIGAIDPETGGTAYNQKFKGKATVTADKSSRTAYMELRSLTSEDSAVYYCTREGDGSYGAYWGQGTLVTVSA
VL: B10 VL with L3M, H31Y, V51L, I53M, I67F, G86E, V99A, Y101W
B12: BL006-19-134G5-134K4 (antibody, V domains shown)
VH: QVQLQQPGAELVKPGASVKLSCKASDYTFTTYWMHWVKQRPGQGLEWIGMIHPNSDTTLYNEKFRSQATLTVDKSSSTAYIQLSRLTSEDSAVYYCVVTGTNFDYWGQGTTLAVSS
VL: QVVLTQSPAIMSASPGEKVTMTCSATSSVSYMYWYQQKPGSSPKPWIYRTSNLASGVPVRFSGSGSGTSYSLTISSMEAEDAATYYCQQWSSNPLTFGGGTKLELK
B13: BL006-19-363G1-363K1 (antibody, V domains shown)
VH: B12 VH with D26G, M34I, H52L, D56G, L59I, T78A, I81M, V97A, A113T
VL: B12 VL with V2I, T26S, S66F, S76N, G99T
B14: BL006-19-55G10-55K7 (antibody, V domains shown)
VH: QVQLQQSGAEVVRPGTSVKMSCKAAGYTFTDNWIDWVKQRPGHGLDWIGNIFPGGNYTNYNEKFKGKATLTADTSSSTAYMQLINLTSEDSAIYYCVRAVADSQFAYWGQGTLVTVSA
VL: B12 VL with V2I, A13V, T26S, S28R, S30T, G99A
B15: BL006-19-29G5-29K1 (antibody, V domains shown)
VH: QVTLKESGPGILQSSQTLSLTCSFSGFSLSTFGMGVSWIRKPSGKGLEWLAHIFWDDDKRYNPSLKSRLTISKDTSSNQVFLMINSMDIADTATYYCTRGSNWFAYWGQGTLVTVSA
VL: DIVLTQSPASLAVSLGQRATISCRASESVDSYGNSFMHWYQQKPGQPPKLLIYRASNLESGIPARFSGSGSRTDFTLTINPVEADDVATYYCQQSNEDPLTFGAGTKLELK
B16: BL006-4-31G1-31K3 (antibody, V domains shown)
VH: QVQLQQSGPELVKPGASVKISCKTSGFTFTDYYINWVKQRPGQGLEWIGWIFPGSGSSFYSEIFKGQATLTVDKSSSTAYMLLSSLTSEDSAVYFCARRNYYGYGAYAMDYWGQGTSVTVSS
VL: DIQMNQSPSSLSASLGDTITITCRASQSINFWLSWYQQKPGNIPKLLIYKASNLHTGVPSRFSGSGSGTDFTLTISSLQPEDIATYYCLQGQSYPLTFGGGTKLEIK
B17: BL006-19-190G4-190K6 (antibody, V domains shown)
VH: EVQLVESGGGLVQPGGSLKLSCAASGFTFSNYGMSWVRQTPDKRLELVATINSNGGSTYYPDSVKGRFTISRDNAKNTLYLQMSSLKSEDTAMYYCTKRGAWYFDVWGTGTTVTVSS
VL: DIQMTQSSSSFSVSLGDRVTITCKASEDIYNRLAWYQQKPGNAPRLLISSATSLETGVSSRFSGSGSGKDYTLSITSLQTEDVATYYCQQYWTTPTWTFGGGTKLEIK

Biological target: T1, hCD96-humanIgG1 fusion protein (human)
Experiment: SPR (Biacore), hCD96-hFc captured by anti-huFc

| Binder | Kd [nM] | koff [s⁻¹] | kon [M⁻¹ s⁻¹] |
| --- | --- | --- | --- |
| B1 | 4.6 | 0.00275 | 598000 |
| B2 | 0.198 | 0.00016 | 810000 |
| B3 | 2.83 | 0.000363 | 128000 |
| B4 | 0.45 | 0.000296 | 656000 |
| B5 | 0.364 | 0.000153 | 420000 |
| B6 | 0.825 | 0.00057 | 691000 |
| B7 | 23.4 | 0.000796 | 34100 |
| B8 | 6.75 | 0.000988 | 146000 |
| B9 | 42.3 | 0.00193 | 45500 |
| B10 | 3.47 | 0.000579 | 167000 |
| B11 | 0.351 | 0.000192 | 548000 |
| B12 | 0.707 | 9.88e-05 | 140000 |
| B13 | 3.5 | 0.000585 | 167000 |
| B14 | 3.45 | 0.000501 | 145000 |
| B15 | 0.182 | 0.000163 | 896000 |
| B16 | 13.2 | 0.0007 | 53100 |
| B17 | 2.97 | 0.000444 | 150000 |
